# Test results as given in PMC2851846 (Oncogene, 2010).
# Experiments:
# [1] = molecular target: T1, pCREB/KIX ternary complex on CRE DNA (pCREB/KIX/CRE) (UniProt P16220-2 1-327; P45481 588-683, phosphoserine at 133 (Ser133)); assay: native gel or EMSA
# [2] = molecular target: T1, pCREB/KIX ternary complex on CRE DNA …; assay: native gel or EMSA; remark: listed apart in the source
# T1 sequence (P16220 whole entry, chain 1 of 2): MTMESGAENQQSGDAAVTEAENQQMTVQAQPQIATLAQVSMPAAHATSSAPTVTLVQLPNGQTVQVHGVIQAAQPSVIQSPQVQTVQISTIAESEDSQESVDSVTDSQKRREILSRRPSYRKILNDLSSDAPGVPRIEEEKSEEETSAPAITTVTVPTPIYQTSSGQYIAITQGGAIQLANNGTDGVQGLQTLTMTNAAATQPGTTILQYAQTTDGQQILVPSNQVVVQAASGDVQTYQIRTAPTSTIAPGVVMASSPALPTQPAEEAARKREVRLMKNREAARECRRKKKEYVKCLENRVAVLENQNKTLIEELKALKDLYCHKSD
# T1 sequence (P45481 588-683, chain 2 of 2): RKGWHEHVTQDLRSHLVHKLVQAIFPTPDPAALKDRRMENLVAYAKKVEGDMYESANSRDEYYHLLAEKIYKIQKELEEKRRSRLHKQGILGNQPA
binder,measurement,setting,value
"HTLV-1 Tax protein, Tax-His6 (natural protein) not shown",apparent Kd on cyclin D1 CRE DNA,[1],0.034 ± 0.005 µM
same,apparent Kd on vCRE DNA,[2],0.0024 ± 0.0001 µM
